Results reported in US7176188B2, “Method of lethally sensitizing human and animal cells” (UniversitéLaval, priority 2003, dated 2007).

Test: PARG activity of bacterial extracts expressing recombinant protein (TLC release of 32P-ADP-ribose from 32P-poly(ADP-ribose))
Assay type: biochemical, C. elegans
Details: for PARG activity (qualitative): bacterially expressed His-tagged protein, 24 h at 37° C.
Method: Cultures of M15-pREP4 bacteria transformed with pQE-PME-3L, were grown overnight at saturation at 37° C. Fresh cultures (1000 ml) were started with 50-mL overnight cultures and grown at 37° C. at OD600 nm 0.600. Cultures were then induced with 1 mM isopropyl-1-thio-β-d-galactopyranoside (IPTG) at 37° C. for 2.5 h. M15-pREP4 bacteria transformed with vector alone were also treated with 1 mM IPTG at 37° C. for 2.5 h. Cultures were pelleted at 3000×g for 10 min at 4° C., resuspended in 10 ml extraction buffer (50 mM KPO4, pH 7.5, 50 mM Kcl, 10 mM β-mercaptoethanol, 0.1% triton X-100) and passed twice at 16,000 psi in a French Pressure Cell (SLM-AMINCO®, Rochester, N.Y.) maintained at 4° C. Extracts were centrifuged for 10 min at 1000×g at 4° C. and protein concentration of supernatants were determined. Each supernatant (23.7 mg/ml for M15+pQE-30 and 22.2 mg/ml for pQE-PME-3L) were analyzed on SDS-PAGE and assayed for PARG activity.
PARG activity was determined according to Ménard et al (1987, Biochem. Cel Biol. 65: 668–673). Ten μl of worm or bacterial extracts were assayed for 24 h at 37° C. in the presence of ^32P-poly(ADP-ribose) followed by a thin layer chromatography. Radiolabeled ADP-ribose units released from ADP-ribose polymers were quantified directly on the TLC using an Instant Imager Electronic Autoradiography device (Canberra-Packard). One unit of PARG is defined as the amount of enzyme required to liberate 1 nmol of ADP-ribose per min at 37° C. under assay conditions (Menard and Poirier, 1987, Biochem. Cell Biol. 65: 668–673). Radiographic X-OMAT film was exposed to the TLC plate and placed at −80° C. for 24 h.

B1: His-PME-3L: His-tagged recombinant C. elegans PARG PME-3L (SEQ ID NO:9) expressed in bacteria from pQE-PME-3L (protein)
chain: MSKKFIELGDPVTQDEKDYEDYVGVGFAHQVPTMKRRKLTEHGNTTESKEDPEEPKSRDVFVSSQSSDESQEDSAENPEIAKEVSENCENLTETLKISNIESLDNVTERSEHTLDNHKSTEPMEEDVNNKSNIDVAINSDEDDELVLEENNKEMRDGEQVQQDLFADDQELIEYPGIMKDTTTQLDITDSEVETAQKMEMIEETEADSTFVGEDSKNQRQSGTTSDEVDADSQINLATKTVRTSSSSFLSTVSTCEAPAKGRARMYQKELEKHVIAFTEGNLTLQPDLNKVDPDRNYRYCTIPNFPASQGKLREDNRYGPKIVLPQRWREFDSRGRRRDSYFYFKRKLDGYLKCYKTTGYFMFVGLLHNMWEFDPDITYKLPALEMYYKEMSELVGREEVLEKFARVARIAKTAEDILPERIYRLVGDVESATLSHKQCAALVARMFFARPDSPFSFCRILSSDKSICVEKLKFLFTYFDKMSMDPPDGAVSFRLTKMDKDTFNEEWKDKKLRSLPEVEFFDEMLIEDTALCTQVDFANEHLGGGVLNHGSVQEEIRFLMCPEMMVGMLLCEKMKQLEAISIVGAYVFSSYTGYGHTLKWAELQPNHSRQNTNEFRDRFGRLRVETIAIDAILFKGSKLDCQTEQLNKANIIREMKKASIGFMSQGPKFTNIPIVTGWWGCGAFNGDKPLKFIIQVIAAGVADRPLHFCSFGEPELAAKCKKIIERMKQKDVTLGMLFSMINNTGLPHKHFEFYVFDRISTYLSSSEDVESSKSSPSVSRA
modifications: His tag; PEPTIDE (1)...(781) PME-3L
PARG activity compared to His-PME-4 (bacterial extracts, similar rate of bacterial expression): ~10 times | PARG activity (qualitative): display PARG activity

B2: His-PME-4: His-tagged recombinant C. elegans PARG PME-4 (SEQ ID NO:11) expressed in bacteria from pET23a-PME-4 (protein)
chain: MDHENLMKYLEEFRSIRFQPDFQKVDAERNVRYCEITDFPISNISFELLETGVSQQWRNCDQNLFNEYLKTYKNGGYSQFEDLLFKIWGYSEEKERFDLPALKSFYRKMSEIVGEDEVLEKLARLVRITKSACEVLPEKIYRLVGDIESATFSHIQCASLIAWMFFSDTPRLSFIIILQKTTCVAVEKLKFLFTYFDKMSIDPPIGAVSFRKMRITHKQYLENWKLRETNLLPDVQVFDKMSIEETALCTQIDFANKRLGGGVLKGGAVQEEIRFMMCPEMMVAILLNDVTQDLEAISIVGAYVFSSYTGYSNTLKWAKITPKHSAQNNNSFRDQFGRLQTETVAIDAVRNAGTPLECLLNQLTTEKLTREVRKAAIGFLSAGDGFSKIPVVSGWWGCGAFRGNKPLKFLIQVIACGISDRPLQFCTFGDTELAKKCEEMMTLFRNNNVRTGQLFLIINSIGPPLNYSEQYVFDAIRAKINSTKA
modifications: His tag; PEPTIDE (1)...(485) PME-4
PARG activity (qualitative): display PARG activity
